The source of these data is article PMC11626169.

This data set deals with T1, GST-HY5 (Arabidopsis thaliana, UniProt O24646 1-168).
T1 sequence: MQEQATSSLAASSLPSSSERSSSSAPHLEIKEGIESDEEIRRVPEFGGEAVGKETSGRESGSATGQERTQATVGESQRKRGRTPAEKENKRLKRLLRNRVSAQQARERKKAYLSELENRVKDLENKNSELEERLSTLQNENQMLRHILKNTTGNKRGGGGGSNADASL
As to the kind of experiment: EMSA.

B1: NST3 promoter Probe 1 (dsDNA)
DNA 1: CATGACATTACACGTCAAAAGAAATATGTCTTACGTCAGAACTTACGTAT
DNA 2: ATACGTAAGTTCTGACGTAAGACATATTTCTTTTGACGTGTAATGTCATG
In the case of B1, the binding result is “binds”.

B2: NST3 promoter Probe 2 (dsDNA)
DNA 1: AATTAACATGGTAGAATGTAGATGACGTAGATCATGAAACGAGTGTGTGA
DNA 2: TCACACACTCGTTTCATGATCTACGTCATCTACATTCTACCATGTTAATT
Regarding B2, the binding result was “binds”.
